B1: CCAAT/enhancer-binding protein alpha (Homo sapiens), P49715-1 (parent)
chain: MESADFYEAEPRPPMSSHLQSPPHAPSSAAFGFPRGAGPAQPPAPPAAPEPLGGICEHETSIDISAYIDPAAFNDEFLADLFQHSRQQEKAKAAVGPTGGGGGGDFDYPGAPAGPGGAVMPGGAHGPPPGYGCAAAGYLDGRLEPLYERVGAPALRPLVIKQEPREEDEAKQLALAGLFPYQPPPPPPPSHPHPHPPPAHLAAPHLQFQIAHCGQTTMHLQPGHPTPPPTPVPSPHPAPALGAAGLPGPGSALKGLGAAHPDLRASGGSGAGKAKKSVDKNSNEYRVRRERNNIAVRKSRDKAKQRNVETQQKVLELTSDNDRLRKRVEQLSRELDTLRGIFRQLPESSLVKAMGNCA
partner: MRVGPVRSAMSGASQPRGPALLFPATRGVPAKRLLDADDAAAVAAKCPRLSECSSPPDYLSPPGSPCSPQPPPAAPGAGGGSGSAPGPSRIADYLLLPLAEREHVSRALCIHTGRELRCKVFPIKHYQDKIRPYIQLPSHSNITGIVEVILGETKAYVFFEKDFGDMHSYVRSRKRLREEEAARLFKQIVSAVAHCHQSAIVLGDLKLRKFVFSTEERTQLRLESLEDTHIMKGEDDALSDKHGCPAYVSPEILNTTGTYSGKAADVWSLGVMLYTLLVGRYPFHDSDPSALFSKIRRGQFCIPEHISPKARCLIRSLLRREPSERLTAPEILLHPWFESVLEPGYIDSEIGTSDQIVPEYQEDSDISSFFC

Variants of: B1
Details: with TRIB1, Q96RU8-1

Row | Variant | effect of a mutation on the interaction
1 | S61A | decreasing interaction strength
2 | I55A | decreasing interaction strength
3 | E59A | decreasing interaction strength

Further lines, results first:

Row | effect of a mutation on the interaction | Variant
4 | decreasing interaction strength | I62D
5 | decreasing interaction strength | Y67A
6 | decreasing interaction strength | I68D
7 | decreasing interaction strength | I64D
